Measured values taken from patent publication US20160362460A1 (Pieris, published 2016).

Legend:
[1] = molecular target: T1, Human CTLA-4-Fc (Chimerigen, CHI-HF-210A4-M001) (human, UniProt P16410 37-162); test: SPR (Biacore T200), human CTLA-4-Fc captured by anti-human IgG-Fc, mutein as analyte, 1:1 fit
T1 construct: Bought protein; also called hCTLA-4; not shown: Fc part of the bought fusion

[2] = molecular target: T2, human CTLA-4 on transfected CHO-K1 cells (human, UniProt P16410 36-223); test: FACS competition: inhibition of 20 nM biotinylated CD80/B7.1 binding to CTLA-4-transfected CHO-K1 cells
T2 construct: whole, on cells; also called CHO: CTLA-4; human CTLA-4 expressing CHO cells
T2 sequence (P16410 36-223): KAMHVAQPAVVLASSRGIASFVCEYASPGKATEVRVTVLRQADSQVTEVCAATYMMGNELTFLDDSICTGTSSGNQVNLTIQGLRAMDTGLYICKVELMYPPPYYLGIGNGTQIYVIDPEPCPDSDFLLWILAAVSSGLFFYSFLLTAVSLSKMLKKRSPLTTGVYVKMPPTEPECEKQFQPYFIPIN

[3] = molecular target: T2, human CTLA-4 on transfected CHO-K1 cells; test: FACS competition on human CTLA-4-transfected CHO cells; blocked ligand 20 nM biotinylated human B7.1 Fc, detected with streptavidin-PE
[4] = molecular target: T2, human CTLA-4 on transfected CHO-K1 cells; test: FACS competition: inhibition of 20 nM B7.1 Fc-bio binding to human CTLA-4-transfected CHO cells
[5] = molecular target: T2, human CTLA-4 on transfected CHO-K1 cells; test: FACS competition on human CTLA-4-transfected CHO cells; blocked ligand 20 nM biotinylated human B7.1, streptavidin-phycoerythrin

T1 sequence (P16410 37-162 limits assumed, change not shown): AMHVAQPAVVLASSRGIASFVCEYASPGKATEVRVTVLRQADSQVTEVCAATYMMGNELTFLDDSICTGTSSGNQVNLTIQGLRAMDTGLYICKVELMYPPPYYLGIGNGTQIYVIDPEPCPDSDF

B1: lipocalin mutein SEQ ID NO: 62 (designed binder)
chain: QDSTSDLIPAPPLSKVPLQQNFQDNQFQGKWYVVGLAGNRILRDDQHPMPMYATIYELKGDKSYNVTSVISSHKKCLYPIATFVPGSQPGEFTLGNIKSYGDKWSYLVRVVSTDYNQYAVVFFKHADSNYESFSITIYGRTKELASELKENFIRFSKSLGLPENHIVFPVPIDQCIDG
Kd [1]: 0.36 nM | koff [1]: 0.00027 s⁻¹ | kon [1]: 750000 M⁻¹ s⁻¹ | EC50 [2]: 6 nM

B2: CTLA-4 specific lipocalin mutein (SEQ ID NO: 4) (designed binder)
chain: QDSTSDLIPAPPLSKVPLQQNFQDNQFHGKWYVVGLAGNRILRDDQHPMPMYATIYELKGDKSYNVTSVISSHKKCLYPIATFVPGSQPGEFTLGNIKSYGDKWSYLVRVVSTDYNQYAVVFFKHADSNYESFSITIYGRTKELASELKENFIRFSKSLGLPENHIVFPVPIDQCIDG
notes: hNGAL (lipocalin 2) mutein
IC50 (read off the curve) [3]: ~20 nM | Kd [1]: 0.35 nM | koff [1]: 0.00022 s⁻¹ | kon [1]: 640000 M⁻¹ s⁻¹ | IC50 [4]: 23 nM | EC50 [2]: 7.6 nM

B3: lipocalin mutein SEQ ID NO: 61 (designed binder)
chain: QDSTSDLIPAPPLSKVPLQQNFQDNQFQGKWYVVGLAGNRILRLDQHPMPMYATIYELKGDKSYNVTSVISSHKKCLYPIATFVPGSQPGEFTLGNIRSYGDKTSYLVRVVSTDYNQYAVVFFKHADTNYESFSITIYGRTKELASELKENFIRFSKSLGLPENHIVFPVPIDQCIDG
Kd [1]: 0.94 nM | koff [1]: 0.00072 s⁻¹ | kon [1]: 770000 M⁻¹ s⁻¹ | EC50 [2]: 9.3 nM

B4: lipocalin mutein SEQ ID NO: 94 (designed binder)
chain: QDSTSDLIPAPPLSKVPLQQNFQDNQFQGKWYVVGLAGNRILRQDQHPMPMYATIYELKEDKSYQVTSVISSHKKCLYPIATFVPGSQPGEFTLGNIKSYGDKVSYLVRVVSTNYNQHAMVFFKYADRNFESFSITLYGRTKELTSELKENFIRFSKSLGLPENHIVFPVPIDQCIDG
IC50 (read off the curve) [5]: 10 to 20 nM | Kd [1]: 1.8 nM | koff [1]: 0.00061 s⁻¹ | kon [1]: 340000 M⁻¹ s⁻¹ | EC50 [2]: 13.4 nM

B5: lipocalin mutein SEQ ID NO: 65 (designed binder)
chain: QDSTSDLIPAPPLSKVPLQQNFQDNQFQGKWYVVGLAGNRILRDDQHPMPMYATIYELKEDKSYQVTSVISSHKKCLYPIATFVPGSQPGEFTLGNIKSYGDKWSYLVRVVSTNYNQHAMVFFKHADSNYESFSITLYGRTKELTSELKENFIRFSKSLGLPENHIVFPVPIDQCIDGSAWSHPQFEK
Kd [1]: 0.62 nM | koff [1]: 0.00044 s⁻¹ | kon [1]: 710000 M⁻¹ s⁻¹ | EC50 [2]: 7.8 nM

B6: lipocalin mutein SEQ ID NO: 66 (designed binder)
chain: QDSTSDLIPAPPLSKVPLQQNFQDNQFQGKWYVVGLAGNRILRLDQHPMPMYATIYELKEDKSYQVTSVISSHKKCLYPIATFVPGSQPGEFTLGNIRSYGDKTSYLVRVVSTNYNQHAMVFFKHADTNYESFSITLYGRTKELTSELKENFIRFSKSLGLPENHIVFPVPIDQCIDGSAWSHPQFEK
Kd [1]: 1.8 nM | koff [1]: 0.0013 s⁻¹ | kon [1]: 750000 M⁻¹ s⁻¹ | EC50 [2]: 7.4 nM
